{"source": "patent US20250339569A1", "about": "(3B PHARMACEUTICALS, published 2025)", "key": {"[1]": {"biological_target": "T1, canine carbonic anhydrase 9 (CAIX) (dog)", "T1 construct": "Expressed on transfected CHO cells (CHO-dogCA9); also called dgCAIX; dog CAIX", "assay": "radioligand saturation binding on CHO-dgCAIX cells, 8 h at 37 °C, experiment iii", "T1 sequence (chain, as listed by the source limits assumed)": "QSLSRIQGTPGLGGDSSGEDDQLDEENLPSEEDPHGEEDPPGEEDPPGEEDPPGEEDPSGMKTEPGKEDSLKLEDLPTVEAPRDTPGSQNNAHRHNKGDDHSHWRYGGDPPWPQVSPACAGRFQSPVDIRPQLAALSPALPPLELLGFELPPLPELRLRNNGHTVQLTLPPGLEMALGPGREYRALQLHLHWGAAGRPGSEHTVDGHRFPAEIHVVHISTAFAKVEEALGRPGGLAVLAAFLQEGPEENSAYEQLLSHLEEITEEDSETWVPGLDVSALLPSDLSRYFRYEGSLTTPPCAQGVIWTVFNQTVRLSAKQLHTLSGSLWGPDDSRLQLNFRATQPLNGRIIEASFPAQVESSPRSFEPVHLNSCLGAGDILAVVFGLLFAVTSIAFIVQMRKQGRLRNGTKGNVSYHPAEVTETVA", "quoted_text": "(§4) The radioligand saturation binding on CHO-huCAIX and dgCAIX was determined as follows. […] To determine total binding, 700 μL of binding medium and 100 μL of the radioligand dilutions were added to the wells in triplicates. […] The plates were incubated for 8 h at 37° C. under standard cell culture conditions (5% CO2). At the end of the incubation time the plates were placed on ice while aspirating the radioligand solutions. Aliquots of the 20 nM supernatants were transferred to HPLC vials for analysis of radioligand stability over the incubation time. Subsequently, the cells were washed with ice-cold PBS (0.5 mL, 1 mL, 1 mL). 300 μL of RIPA buffer containing PIC was added to each well and the plates were placed on a shaker for 10 min at ambient temperature. 200 μL of the cell lysate of each well was transferred to gamma-counting tubes. Their associated radioactivity was counted using a gamma counter and normalized to the measured protein concentration of each well (see chapter 6.3.7 BCA protein assay). An aliquot of each radioligand dilution was included in the gamma counter measurements to allow for determination of the actual radioligand concentrations in the dilution series."}, "[2]": {"biological_target": "T1, canine carbonic anhydrase 9 (CAIX)", "assay": "radioligand saturation binding on CHO-dgCAIX cells, 8 h at 37 °C, experiment ii", "quoted_text": "as §4"}, "[3]": {"biological_target": "T2, human carbonic anhydrase IX (CAIX) (human, UniProt Q16790 38-459)", "assay": "radioligand binding, 111In-labeled compound, CHO cells with human CAIX; pKD category A: >8.0", "quoted_text": "(§5) CHO-VGT cells were transfected with the human, dog, and mouse CAIX (InSCREENex GmbH) and cultured in Ham's F-12 medium (Sigma-Aldrich #N4888) supplemented with 10% fetal bovine serum (FCS), 2 mM L-glutamine, 100 U/mL Penicillin, and 0.1 mg/mL streptomycin. […] Cell concentrations were adjusted to 3×10⁵ mL⁻¹, and 1.000 μL of the suspension per well were dispensed into flat-clear-bottom 24 well plates.\n(§6) Approximately 24 hours after re-seeding, the medium was aspirated and the cells were washed once with 1000 μL assay medium (Ham's medium without additives). To determine total binding, 700 μL of assay medium and 100 μL of the radioligand dilutions were added to the wells in triplicates. To determine non-specific binding, 600 μL of binding medium, 100 μL of the radioligand dilutions and 100 μL of a blocking solution containing 8 μM non-labeled compound were added to the wells in triplicates. […] An aliquot of each radioligand dilution was included in the gamma counter measurements to allow for determination of their actual concentrations via their known specific activity."}, "[4]": {"biological_target": "T3, canine carbonic anhydrase 9 (CAIX) (dog)", "T3 construct": "On transfected CHO-VGT cells; also called dog CAIX", "assay": "radioligand binding, 111In-labeled compound, CHO cells with dog CAIX; pKD category A: >8.0", "T3 sequence (chain, as listed by the source limits assumed)": "as above", "quoted_text": "as §5, §6"}, "[5]": {"biological_target": "T4, murine carbonic anhydrase 9 (CAIX) (mouse, UniProt Q8VHB5 32-437)", "T4 construct": "On transfected CHO-VGT cells; also called mouse CAIX", "T4 sequence (Q8VHB5 32-437 limits assumed)": "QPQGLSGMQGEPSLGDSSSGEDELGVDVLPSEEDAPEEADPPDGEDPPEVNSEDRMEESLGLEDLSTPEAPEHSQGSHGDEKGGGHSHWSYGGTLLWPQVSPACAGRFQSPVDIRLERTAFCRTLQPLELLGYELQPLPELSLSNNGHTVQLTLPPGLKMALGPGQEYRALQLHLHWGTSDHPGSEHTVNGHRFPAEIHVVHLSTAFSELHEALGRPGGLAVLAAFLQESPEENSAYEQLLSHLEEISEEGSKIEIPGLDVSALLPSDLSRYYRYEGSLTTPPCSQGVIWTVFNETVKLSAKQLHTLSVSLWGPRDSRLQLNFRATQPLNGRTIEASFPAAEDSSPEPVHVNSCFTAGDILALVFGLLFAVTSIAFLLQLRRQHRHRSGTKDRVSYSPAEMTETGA", "assay": "radioligand binding, 111In-labeled compound, CHO cells with mouse CAIX; pKD category A: >8.0", "quoted_text": "as §5, §6"}, "[6]": {"biological_target": "T5, Fc-fusion protein of human carbonic anhydrase IX (human, UniProt Q16790 38-414)", "assay": "SPR, captured hCAIX-Fc; pKD category A: >8.0"}, "[7]": {"biological_target": "T5, Fc-fusion protein of human carbonic …", "assay": "SPR, captured hCAIX-Fc; t1/2 category A: >15.0 min"}, "[8]": {"biological_target": "T2, human carbonic anhydrase IX (CAIX)", "assay": "FACS competition, HT-29 cells, tracer printed 3BP-414 (probably 3BP-4149); pIC50 category B: 7.1-8.0", "description": "(§1) CAIX-expressing human HT-29 colorectal cancer cells (DSMZ, RRID: CVCL_0320) were cultured in McCoys's 5A modified medium (Biochrom, #F1015) including 10% fetal calf serum (FCS), 2 mM L-glutamine, 100 U/ml penicillin and 100 μg/mL streptomycin. Cells were detached with Accutase (Biolegend, #423201) and washed in FACS buffer (PBS including 1% FCS). Cells were diluted in FACS buffer to a final concentration of 500.000 cells per ml. 200 μL of the cell suspension were transferred to a u-shaped non-binding 96-well plate (Greiner) and cells were washed in ice-cold FACS buffer.\n(§2) When biotinylated compounds were used an additional incubation step with 1 μg/mL APC-Streptavidin (Miltenyi; #130-106-791) in 50 μL FACS buffer for 30 minutes on ice was performed.\n(§3) Cells were washed twice with ice-cold FACS buffer and analyzed in an Attune NxT flow cytometer (Thermo Fisher). Median fluorescence intensities (MFI) of the APC/Cy5-channel were calculated by Attune NxT software."}, "[9]": {"biological_target": "human carbonic anhydrase 9 (CAIX) (human, UniProt Q16790 38-459)", "assay": "FACS binding assay on CAIX-expressing HT-29 cells, Cy5-labeled compound; pEC50 category (A = pEC50 >8.0)", "description": "as §1, §2, §3"}, "[10]": {"biological_target": "T4, murine carbonic anhydrase 9 (CAIX)", "assay": "radioligand binding, 111In-labeled compound, CHO cells with mouse CAIX; pKD category C: 6.1-7.0"}}, "note": "Starred links: 1 amine or outer side, 2 acyl side, 3 side chain; linkers in the order of their positions; H or OH if unused. Positions of bridges follow the written chain, without caps; N, C: chain ends. Non-standard residues stand in square brackets, D forms with d. Primed or numbered codes have the meaning given here. *: point of attachment. Aph(SaPr)(3) = 4-amino-L-phenylalanine with ring amino acylated by 3-sulfamoylpropanoic acid, NS(=O)(=O)CCC(=O)Nc1ccc(C[C@H](N[*:1])C(=O)[*:2])cc1; 111In‑DOTA = O=C([O-])CN1CCN(CC(=O)[O-])CCN(CC(=O)*)CCN(CC(=O)[O-])CC1.[111In+3]; Phe(3-NHCO(CH2)3SO2NH2) = N[C@@H](Cc1cccc(NC(=O)CCCS(N)(=O)=O)c1)C(=O)O; APAc″ = 2-(4-(amino)piperidin-1-yl)acetic acid, NC1CCN(CC(=O)*)CC1; DOTA = O=C(O)CN1CCN(CC(=O)O)CCN(CC(=O)*)CCN(CC(=O)O)CC1; PPAc = 4-carboxymethyl piperazine linker; mXylylene = c1cc(C[*:1])cc(C[*:2])c1; Cy5SO3 = Cy5 dye with one sulfonate; Dap = NC[C@H](N)C(=O)O; Sni = not defined here", "data": [{"binder": "{DOTA}-QCE[dP]D[Aph(SaPr)(3)]LTWSC-NH2 (linker 2-11 via mXylylene; also: 111In complexed by DOTA, Cyclic peptide with chelator DOTA complexing In-111; X stands for the non-natural residue Aph(SaPr); also called ^111In-DOTA-Q-[C(3MeBn)-EPD-Aph(SaPr)-LTWSC]-NH2; ^111In-3BP-4501)", "note": "[[^111In]In-DPI-4501]", "values": [{"measurement": "pKd", "setting": "[1]", "value": "9.6 -log10(M)"}]}, {"binder": "{DOTA-PPAc}-QCE[dP]D[Phe(3-NHCO(CH2)3SO2NH2)]LTWSC-NH2 (linker 2-11 via mXylylene; also: 111In complexed in DOTA, Cyclic peptide with chelator DOTA complexing In-111; X stands for the non-natural residue Af3(Cpsu); also called ^111In-DOTA-PPAc-Q-[C(3MeBn)-EPD-Af3(Cpsu)-LTWSC]-NH2; ^111In-3BP-4452)", "note": "[[^111In]In-DPI-4452]", "values": [{"measurement": "pKd", "setting": "[2]", "value": "9.5 -log10(M)"}]}, {"binder": "{111In‑DOTA}-ECE[dP]D[Phe(3-NHCO(CH2)3SO2NH2)]LTW[Dap]C-NH2 (lactam 1-10; linker 2-11 via mXylylene, also called 3BP-4503 (111In-labeled))", "note": "[111In-3BP-4503]", "values": [{"measurement": "pKD", "setting": "[3]", "value": "> 8", "unit": "pkd"}, {"measurement": "pKD", "setting": "[4]", "value": "> 8", "unit": "pkd"}, {"measurement": "pKD", "setting": "[5]", "value": "> 8", "unit": "pkd"}]}, {"binder": "{DOTA-Sni}-YCE[dP]D[Phe(3-NHCO(CH2)3SO2NH2)]LTWSC-NH2 (linker 2-11 via mXylylene; reading uncertain)", "note": "[3BP-4454]", "values": [{"measurement": "pKD", "setting": "[6]", "value": "> 8", "unit": "pkd"}, {"measurement": "t1/2 (half-life of the complex, SPR)", "setting": "[7]", "value": "> 15", "unit": "min"}, {"measurement": "pIC50", "setting": "[8]", "value": "7.1 to 8", "unit": "pic50"}]}, {"binder": "{Cy5SO3-APAc″}-VYCE[dP]DWLTWSC-NH2 (linker 3-12 via mXylylene, Cyclic peptide with a fluorophore)", "note": "[3BP-4149: Cy5SO3-APAc-Val-Tyr-[Cys(3MeBn)-Glu-pro-Asp-Trp-Leu-Thr-Trp-Ser-Cys]-NH2]", "values": [{"measurement": "pEC50", "setting": "[9]", "value": "> 8", "unit": "pec50"}]}, {"binder": "{111In‑DOTA-APAc″}-VYCE[dP]DWLTWSC-NH2 (linker 3-12 via mXylylene, also called 3BP-3583 (111In-labeled))", "note": "[111In-3BP-3583]", "values": [{"measurement": "pKD", "setting": "[10]", "value": "6.1 to 7", "unit": "pkd"}, {"measurement": "pKD", "setting": "[3]", "value": "> 8", "unit": "pkd"}, {"measurement": "pKD", "setting": "[4]", "value": "> 8", "unit": "pkd"}]}]}
